Assays:
[1] = target: GLP-1 receptor (covalently immobilized to the Biacore biosensor surface); experiment: Biacore SPR, GLP-1 receptor covalently immobilized, peptide injected
[2] = target: GLP-1 receptor on CHO-K1/GLP1/Gal5 cells; experiment: cell-based or functional assay

GLP-1 (7-36) (from UniProt P01275 27-56) (peptide)
Kd [1]: 1000 nM

5 kDa-PEG-Cys(37)-GLP-1 (from UniProt P01275 27-56) (peptide)
EC50 of intracellular calcium mobilization (Calcium-4, FlexStation, RFU) [2]: 336 nM
Kd [1]: 1600 nM

Reference: patent US20160151510A1
